What all share (test): cell_activity; endogenous locus, 293H
For one series, the target named is T1, SCOH-SH43-b12-C (artificial).
T1 chain: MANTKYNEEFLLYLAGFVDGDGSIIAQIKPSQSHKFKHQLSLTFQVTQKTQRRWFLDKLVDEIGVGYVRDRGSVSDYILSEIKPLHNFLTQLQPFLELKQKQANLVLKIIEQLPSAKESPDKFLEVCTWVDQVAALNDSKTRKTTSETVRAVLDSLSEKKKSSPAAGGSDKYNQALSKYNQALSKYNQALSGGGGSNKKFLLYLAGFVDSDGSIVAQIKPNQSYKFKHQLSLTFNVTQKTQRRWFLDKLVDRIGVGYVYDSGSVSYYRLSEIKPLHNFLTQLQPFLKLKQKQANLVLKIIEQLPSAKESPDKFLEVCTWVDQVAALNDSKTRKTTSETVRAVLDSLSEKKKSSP
As to the method:
(§1) Human embryonic kidney 293H cells (Invitrogen) were plated at a density of 1×10⁶ cells per 10 cm dish in complete medium (DMEM supplemented with 2 mM L-glutamine, penicillin (100 UI/ml), streptomycin (100 μg/ml), amphotericin B (Fongizone) (0.25 μg/ml) (Invitrogen-Life Science) and 10% FBS). The next day, cells were transfected with 3 μg of single-chain meganuclease expression vector using Lipofectamine 2000 transfection reagent (Invitrogen) according to the supplier's protocol. After 2 to 6 days of incubation at 37° C., cells were trypsinized and genomic DNA extraction was performed with the DNeasy blood and tissue kit (Qiagen) according to the supplier's protocol.
(§2) Human embryonic kidney 293H cells were transfected with a plasmid expressing a single-chain safe harbor meganuclease. After 2 to 6 days of incubation at 37° C., genomic DNA was isolated and PCR was used to amplify the genomic sequence surrounding the meganuclease target site. Sequences were then analyzed for the presence of insertions or deletions events (InDel) in the cleavage site of each safe harbor target.

In the next series the target is T2, SCOH-SH44-b11-C (artificial).
T2 chain: T1 chain with S31R, V215I, N235K, Y266N, R268I, E271K
As to the method: as §1, §2

The next series concerns the target T3, SCOH-SH42-b11-C (artificial).
T3 chain: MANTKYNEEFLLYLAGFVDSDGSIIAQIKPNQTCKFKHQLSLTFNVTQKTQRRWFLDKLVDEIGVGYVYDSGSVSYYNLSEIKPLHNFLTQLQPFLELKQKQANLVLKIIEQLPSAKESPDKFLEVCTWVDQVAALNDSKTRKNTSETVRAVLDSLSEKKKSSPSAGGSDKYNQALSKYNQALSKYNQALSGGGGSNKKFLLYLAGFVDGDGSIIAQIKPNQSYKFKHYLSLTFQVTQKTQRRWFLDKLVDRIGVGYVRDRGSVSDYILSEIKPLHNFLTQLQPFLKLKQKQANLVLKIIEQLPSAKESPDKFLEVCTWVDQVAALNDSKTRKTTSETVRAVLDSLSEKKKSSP
As to the method: as §1, §2

The target in a further series is T4, SCOH-SH31.2 (artificial).
T4 chain: T1 chain with S31N, H34R, Q39A, S41Q, V215I, N235K, Y259R, S261N, Y266D, R268I
On the procedure:
as §1, §2

Another series addresses T5, SCOH-SH4-b1-C (artificial).
T5 chain: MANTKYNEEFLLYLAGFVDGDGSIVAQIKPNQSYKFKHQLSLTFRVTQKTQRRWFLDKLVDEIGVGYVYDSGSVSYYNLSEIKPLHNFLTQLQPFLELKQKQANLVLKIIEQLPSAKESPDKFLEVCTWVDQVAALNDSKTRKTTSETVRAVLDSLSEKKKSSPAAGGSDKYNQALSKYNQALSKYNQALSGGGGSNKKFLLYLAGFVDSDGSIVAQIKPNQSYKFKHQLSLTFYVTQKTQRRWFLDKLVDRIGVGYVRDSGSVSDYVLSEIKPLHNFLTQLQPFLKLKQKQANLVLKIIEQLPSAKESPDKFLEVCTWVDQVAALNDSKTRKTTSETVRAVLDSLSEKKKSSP
On the procedure:
as §1, §2

In the next series the target is T6, SCOH-SH41-b11-C (artificial).
T6 chain: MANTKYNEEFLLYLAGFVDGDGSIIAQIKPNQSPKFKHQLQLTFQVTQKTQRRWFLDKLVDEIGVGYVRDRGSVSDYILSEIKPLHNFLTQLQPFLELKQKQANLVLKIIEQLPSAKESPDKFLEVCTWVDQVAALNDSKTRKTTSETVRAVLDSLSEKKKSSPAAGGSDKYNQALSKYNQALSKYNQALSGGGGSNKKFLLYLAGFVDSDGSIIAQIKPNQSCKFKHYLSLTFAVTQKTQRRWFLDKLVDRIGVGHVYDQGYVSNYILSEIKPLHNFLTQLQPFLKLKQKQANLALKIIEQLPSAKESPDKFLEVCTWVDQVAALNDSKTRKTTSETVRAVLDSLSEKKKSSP
As to the method:
as §1, §2

The target of the next series is T7, SCOH-SH39-b11-C (artificial).
T7 chain: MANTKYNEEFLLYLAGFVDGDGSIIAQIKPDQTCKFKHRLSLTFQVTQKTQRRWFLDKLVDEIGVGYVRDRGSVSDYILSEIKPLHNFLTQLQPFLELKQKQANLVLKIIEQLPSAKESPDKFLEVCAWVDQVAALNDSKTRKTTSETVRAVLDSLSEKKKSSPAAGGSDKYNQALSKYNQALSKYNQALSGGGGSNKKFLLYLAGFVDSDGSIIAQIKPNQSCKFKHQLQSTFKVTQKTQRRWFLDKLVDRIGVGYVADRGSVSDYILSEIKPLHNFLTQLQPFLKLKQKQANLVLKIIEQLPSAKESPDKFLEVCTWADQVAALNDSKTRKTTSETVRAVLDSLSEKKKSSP
As to the method: as §1, §2

A further series has as its target T8, SCOH-SH52-b12-C (artificial).
T8 chain: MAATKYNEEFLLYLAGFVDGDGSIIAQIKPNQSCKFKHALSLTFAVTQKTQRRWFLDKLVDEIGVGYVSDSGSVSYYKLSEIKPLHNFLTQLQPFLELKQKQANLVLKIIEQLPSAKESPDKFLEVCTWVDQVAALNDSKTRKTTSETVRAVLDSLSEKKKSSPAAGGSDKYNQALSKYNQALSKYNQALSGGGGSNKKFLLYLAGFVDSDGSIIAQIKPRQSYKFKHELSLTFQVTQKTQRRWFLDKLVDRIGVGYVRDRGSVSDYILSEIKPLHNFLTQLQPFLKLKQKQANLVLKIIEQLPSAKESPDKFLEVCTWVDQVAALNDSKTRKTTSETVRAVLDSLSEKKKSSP
As to the method: as §1, §2

Another series addresses T9, SCOH-SH3-b1-C (artificial).
T9 chain: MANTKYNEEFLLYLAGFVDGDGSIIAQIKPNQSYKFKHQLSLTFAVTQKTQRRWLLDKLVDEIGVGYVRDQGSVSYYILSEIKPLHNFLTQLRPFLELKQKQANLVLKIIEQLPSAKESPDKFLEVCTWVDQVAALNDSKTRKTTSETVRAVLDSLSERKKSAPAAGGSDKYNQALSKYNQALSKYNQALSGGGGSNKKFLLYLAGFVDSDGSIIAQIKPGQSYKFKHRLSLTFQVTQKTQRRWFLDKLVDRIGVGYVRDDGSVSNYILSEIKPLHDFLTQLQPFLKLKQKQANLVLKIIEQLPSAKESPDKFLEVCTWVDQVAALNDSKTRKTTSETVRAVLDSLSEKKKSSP
On the procedure:
as §1, §2

For another series, the target named is T10, SCOH-SH19 (artificial).
T10 chain: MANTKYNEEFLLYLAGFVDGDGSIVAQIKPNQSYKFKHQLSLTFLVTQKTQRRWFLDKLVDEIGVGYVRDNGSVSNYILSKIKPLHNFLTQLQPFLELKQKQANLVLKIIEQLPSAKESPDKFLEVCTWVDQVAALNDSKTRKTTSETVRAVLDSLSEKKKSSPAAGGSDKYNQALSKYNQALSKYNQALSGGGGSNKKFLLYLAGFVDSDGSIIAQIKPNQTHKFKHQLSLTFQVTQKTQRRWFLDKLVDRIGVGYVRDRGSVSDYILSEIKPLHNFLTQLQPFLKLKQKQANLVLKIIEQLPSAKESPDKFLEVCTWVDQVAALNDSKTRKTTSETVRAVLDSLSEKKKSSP
As to the method: as §1, §2

For 10 molecules, activity results are on record in patent US20110239319, “Use of Endonucleases for Inserting Transgenes Into Safe Harbor Loci” (published 2011).

Positions count from the first letter of the chain named.

B1: SH43 target (dsDNA)
DNA 1: TAAATACGTCTTACATTATTTTGC
DNA 2: GCAAAATAATGTAAGACGTATTTA
For the molecule B1, in the series with SCOH-SH43-b12-C, the activity was determined as 0.4 % InDels.

B2: SH44 target (dsDNA)
DNA 1: AAGAAATGTCTCACAGAATTTTAC
DNA 2: GTAAAATTCTGTGAGACATTTCTT
With B2, in the series with SCOH-SH44-b11-C, the activity came to 3.6 % InDels.

B3: SH42 target (dsDNA)
DNA 1: TATATCCCATGTGAGACATGCAGT
DNA 2: ACTGCATGTCTCACATGGGATATA
As to B3, in the series with SCOH-SH42-b11-C, the activity came out at 0.7 % InDels.

B4: SH31 target (dsDNA)
DNA 1: TTGTAATGTCTTACAAGGTTTTAA
DNA 2: TTAAAACCTTGTAAGACATTACAA
B4 displayed an activity with SCOH-SH31.2 of 5 % InDels.

B5: SH4 target (dsDNA)
DNA 1: TTAAAACACTGTACACCATTTTGA
DNA 2: TCAAAATGGTGTACAGTGTTTTAA
B5 returned an activity with SCOH-SH4-b1-C of 0.2 % InDels.

B6: SH41 target (dsDNA)
DNA 1: CCTCTCTTAGGTGAGACGGTACAT
DNA 2: ATGTACCGTCTCACCTAAGAGAGG
In the case of B6, in the series with SCOH-SH41-b11-C, the activity was 0.4 % InDels.

B7: SH39 target (dsDNA)
DNA 1: TCCTTCTGTCTTAAGAGATTTATC
DNA 2: GATAAATCTCTTAAGACAGAAGGA
Turning to B7, the activity in the series with SCOH-SH39-b11-C stood at 1.5 % InDels.

B8: SH52 target (dsDNA)
DNA 1: CTCCACTGTCTTACCTAATCCAGC
DNA 2: GCTGGATTAGGTAAGACAGTGGAG
In turn, B8 showed an activity with SCOH-SH52-b12-C of 3.2 % InDels.

B9: SH3 target (dsDNA)
DNA 1: CCAATACAAGGTACAAAGTCCTGA
DNA 2: TCAGGACTTTGTACCTTGTATTGG
The molecule B9 yielded an activity with SCOH-SH3-b1-C of 0.8 % InDels.

B10: SH19 target (dsDNA)
DNA 1: GCAAAACATTGTAAGACATGCCAA
DNA 2: TTGGCATGTCTTACAATGTTTTGC
B10 yielded an activity in the series with SCOH-SH19 of 0.9 % InDels.
